From US20190127452A1

Legend:
Test in all cases: cell-based or functional assay
[1] = biological target: murine glutamine synthetase N-terminal mutant W60A N61A D63A (mutGS-NT1) (murine) (UniProt P15105)
[2] = biological target: murine glutamine synthetase N-terminal mutant W60A N61A D63A S66A (mutGS-NT2) (murine) (UniProt P15105)
[3] = biological target: murine glutamine synthetase N-terminal mutant W60A N61A D63A S66A D76A (mutGS-NT3) (murine) (UniProt P15105)
[4] = biological target: murine glutamine synthetase N-terminal mutant W60A N61A D63R S66A (mutGS-NT4) (murine) (UniProt P15105)

Measured: recovery of viability of CHO-K1 GS knockout pools in glutamine-free medium

murine glutamine synthetase C-terminal mutant E134A E136A E196A E203A (mutGS-CT1) (from UniProt P15105 1-373)
90 % viability: all assays above

murine glutamine synthetase C-terminal mutant N248A H253A N255A (mutGS-CT2) (from UniProt P15105 1-373)
90 % viability: all assays above
